The target of one experiment is T1, 新型冠状病毒RBD蛋白 (野生型) (SARS-CoV-2, UniProt P0DTC2 319-541).
T1 construct: domain: RBD; also called WT; 新冠病毒RBD蛋白野生型
The experiment is described as follows: SPR (Biacore), 1:1 binding fit. (In SPR one partner is held on a chip, and binding of the other changes the refractive index at the surface.)

Another experiment has as its target 新型冠状病毒(假病毒) S蛋白 (SARS-CoV-2, UniProt P0DTC2 14-1273). In words: cell-based or functional assay.

B1: 人源化新冠病毒中和性抗体nCoV-00D (antibody, V domains shown)
VH: QVQLQQSGAELVKPGASVKLSCKTSGYTFTRYYIYWVKQRPGQGLEWIGEINPNNGGTNFNEKFKSKATLTVDKSSNTAYMQLSSLTSEDSAVYYCTIFITTVIARDYWGQGTLVTVSA
VL: DIVLTQSPASLAVSLGQRATISCRASESVEYSGTTLMQWFQQKPGQPPKLLIYAASNVESGVPARFSGSGSGTDFSLNIHPVEEDDVAMYFCHQSREVPWTFGGGTKLEIKR
notes: also called nCoV-00D抗体
The term Kd denotes the constant that tells how readily two partners part at equilibrium. A low value points to tighter binding. For orientation: koff means a measure of how fast the partners let go of each other. Lower therefore signals a long-lived complex. For orientation: kon means a measure of how fast the partners come together. Read a low kon as slow association. In the experiment with 新型冠状病毒RBD蛋白 (野生型), B1 had a Kd of 0.532 nM, a koff of 0.000133 s⁻¹ and a kon of 251000 M⁻¹ s⁻¹. Moreover, in the experiment with 新型冠状病毒(假病毒) S蛋白, the “IC50, 假病毒中和试验 (Huh7细胞, 荧光素酶值)” value was about 9 ng/mL.

The values are drawn from CN113461812A (BEIJING LUFEI BIOTECHNOLOGY CO LTD, dated 2021).
